Experimental data published in the supplement of paper PMC9170038.

System: MS2 coat protein
Test: apparent KD of MS2 coat protein; designed switch direction (-1 OFF switch, 1 ON switch): -1; higher = weaker reporter binding
Summary of the method: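 The apparent KD reported per design is the median over clusters of curve fits to normalised cluster fluorescence. The RNA switches were transcribed on Illumina chips by stalled E. coli RNA polymerase. SNAP-549-labelled MS2 coat protein was titrated from 0.7 or 1.5 nM, doubling up to 3 µM, in Tris-HCl pH 7.5 buffer containing KCl, MgCl2, BSA, DTT, tRNA and Tween-20, with no input, 200 uM small-molecule ligand, or an oligonucleotide input.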

[1] = Eterna round: R95, input ligand: FMN 200 uM
[2] = Eterna round: R95, input ligand: microRNA oligo, concentration not stated
[3] = Eterna round: R95, input ligand: none
[4] = input ligand: microRNA oligo, concentration not stated

Row | Sequence | apparent KD of MS2 coat protein (input ligand: FMN 200 uM) | apparent KD of MS2 coat protein (input ligand: none) | apparent KD of MS2 coat protein [1] | apparent KD of MS2 coat protein [2] | apparent KD of MS2 coat protein [3] | apparent KD of MS2 coat protein [4]
1 | GCACUGGCAGGAUAUACAUGAGGAUCACCCAUGUGAUCCCUUAAGUACAAAAGUACUAGUAGAAGGGCCUGUGC [Omei Ex3 Model Bachelor's Dilema v46] (Eterna round: R97, puzzle: Exclusion 3) | 307 nM | 785 nM |  |  |  | 
2 | UGCUGACGAGGAUAUACAUGAGGAUCACCCAUGUUGGUUCAGCGACGAUAGUCGCAAUGUAGAAGGUGUCAGCA [E3/9-B2] (Eterna round: R97, puzzle: Exclusion 3) | 748 nM | 97.2 nM |  |  |  | 
3 | CUCCUCAUGGCGCCUAAACACAUGAGGAUCACCCAUGUACAGGCUCUUUGCCGUCUUAUAAUAAAACCGAGGAUGCG [Ageusan] (puzzle: Sensor v3, turn-off variant 1) |  |  | 40.2 nM | 219 nM | 36.4 nM | 
4 | AUCCAGCUAGGAUAUGCAGAGGCGAUCGCGGGCAUGUCCCAACAUGAGGAUCACCCAUGUAGAAGGAGCCAAGG [Eternabot (Original) Solution 48] (Eterna round: R97, puzzle: Exclusion 2) | 76.1 nM | 33.2 nM |  |  |  | 
5 | AACUAAACAUGAGGAUAUGCCUGGGAAGAACAGGCAGAAGGCGUGACAUGAGGAUCACCCAUGUAGCCGGGCUAUUCUCAUGCG [Cediceor] (Eterna round: R96, puzzle: Exclusion NG 1) | 25.3 nM | 31.3 nM |  |  |  | 26.1 nM
6 | UUCCUCGUUGUGAGGAUAUCGUCCGUGUUUUGUUACGAGAAGGCACAUGAGGAUCACCCAUGUUACUUGAUGUU [JR_BMOE4_Sub073] (Eterna round: R96, puzzle: Brourd's mod of Exclusion 4) | 150 nM | 23.3 nM |  |  |  | 19 nM
7 | GUCCUGUGGCAGGAUAUGAAAACGUAGCAACGGUCAGAAGGGCCAACAUGAGGAUCACCCAUGUACCCGUAUGG [Eternabot (L1) Solution 62] (Eterna round: R97, puzzle: Exclusion 6) | 24.3 nM | 19.9 nM |  |  |  | 
8 | UGAGAACAUGAGGAUCACCCAUGUAAGGAUAUGCGAAGAGUUUGGAGAGGUUGAGGAGGCAGAAGGUACGGGAG [JR_Exclu1_Sub045] (puzzle: Exclusion 1) |  |  | 50.2 nM | 49.9 nM | 74.3 nM | 
9 | CCUCAGUCACAGGAUAUGCUCAUCUAAUGAUGAGCAGAAGGGUGAACAUGAGGAUCACCCAUGUUUACGAGGGU [Omei Ex6 E7] (Eterna round: R97, puzzle: Exclusion 6) | 407 nM | 555 nM |  |  |  | 
10 | AAGAAACGAGGAUAUACAGUUGAGUGAGAGAGGGAAGUGUUACAUGAGGAUCACCCAUGUAGAAGGCGUGAGAG [JR_Exclu2_Sub088] (puzzle: Exclusion 2) |  |  | 32.9 nM | 31.4 nM | 33.6 nM | 
11 | GAGGAGCAAGGAUAUACGAGGAUAGGGAAGGUUGGAGAGUGACAUGAGGAUCACCCAUGUAGAAGGUGCAAGGG [JR_Exclu2_Sub095] (puzzle: Exclusion 2) |  |  |  | 108 nM |  | 
12 | ACAUGUAAUGUAGGAUAUUUUACACAUGAGGAUCACCCAUGUAACCGGAGGCUUUACUAUGAGUAAGAGAAGGGUAUGUACAUG [Ex NG2 #63] (Eterna round: R96, puzzle: Exclusion NG 2) | 90.5 nM | 131 nM |  |  |  | 85.2 nM
13 | AAUAAUACAGGAUAUACAGUUUAUUACAUGAGGAUCACCCAUGUUCUUCAAUGUAUAUAAGUAGAAGGGUAAGGAA [EX-5 Malc#1] (puzzle: Exclusion 5) |  |  | 50.9 nM | 25.1 nM | 24.3 nM | 
14 | GAGUAGUAAGGAUAUAGUAGGAGGGAGAAGUGAGGAGAGAACUAGAAGGUACAUGAGGAUCACCCAUGUUGAGA [JR_Exclu4_Sub084] (puzzle: Exclusion 4) |  |  | 24.3 nM | 19.2 nM | 19.5 nM | 
